In the assay the target is EutQ (residues 1 to 229) (S. Typhimurium LT2, UniProt Q9ZFV5 1-229). The experiment in a line: ITC. Background: Isothermal titration calorimetry measures the heat released or taken up as one component is titrated into another.
Sequence of EutQ (residues 1 to 229) (Q9ZFV5 whole entry, the tested form may be a part): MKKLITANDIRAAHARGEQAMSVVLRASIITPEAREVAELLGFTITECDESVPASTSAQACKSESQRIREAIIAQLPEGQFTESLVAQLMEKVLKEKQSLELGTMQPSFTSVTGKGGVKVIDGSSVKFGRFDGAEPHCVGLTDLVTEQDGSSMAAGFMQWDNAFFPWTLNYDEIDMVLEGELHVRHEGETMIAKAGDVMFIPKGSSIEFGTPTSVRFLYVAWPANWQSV

B1: EutE^1–20 encapsulation peptide (peptide)
peptide: MNQQDIEQVVKAVLLKMKDS
What is called Kd is the constant that tells how readily two partners part at equilibrium. Read a low Kd as higher affinity. B1 came in with a Kd of 14.1 µM.

These data come from PMC12487888 (2025).
